Results taken from US20240209107A1 (Sanofi, published 2024).

T1: human OX40 (10481-H08H, Sino Biological), recombinant (human, UniProt P43489 29-216)
T1 construct: Bought protein
T1 sequence (looked up): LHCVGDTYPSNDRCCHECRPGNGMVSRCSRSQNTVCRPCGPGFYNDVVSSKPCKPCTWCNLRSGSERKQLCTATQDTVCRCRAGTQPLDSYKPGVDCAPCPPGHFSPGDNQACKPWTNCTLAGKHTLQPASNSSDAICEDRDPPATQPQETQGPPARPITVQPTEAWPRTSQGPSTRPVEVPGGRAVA

T2: Human OX40 (amino acids 29-170 of human OX40) (human, UniProt P43489 29-170)
T2 construct: range 29-170
T2 sequence (looked up): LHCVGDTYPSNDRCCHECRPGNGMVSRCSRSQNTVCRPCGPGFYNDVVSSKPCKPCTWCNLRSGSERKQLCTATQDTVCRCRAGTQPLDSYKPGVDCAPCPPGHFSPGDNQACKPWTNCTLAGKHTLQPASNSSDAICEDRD

T3: human OX40 on the surface of cells (HEK293 cells expressing human OX40, jurkat cells engineered to express … (human, UniProt P43489 29-277))
T3 construct: whole, on cells; also called huOX40
T3 sequence (looked up): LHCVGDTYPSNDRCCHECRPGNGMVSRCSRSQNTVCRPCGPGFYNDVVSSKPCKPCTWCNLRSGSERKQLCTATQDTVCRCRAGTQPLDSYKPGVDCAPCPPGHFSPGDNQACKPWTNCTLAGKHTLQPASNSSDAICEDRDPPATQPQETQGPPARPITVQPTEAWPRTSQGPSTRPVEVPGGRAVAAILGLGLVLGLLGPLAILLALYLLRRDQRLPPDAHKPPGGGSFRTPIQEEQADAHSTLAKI

B1: bispecific antibody L4 (anti-CD28 VHH x anti-OX40 Fab, human IgG1 Fc) (bispecific antibody)
light: not shown
heavy: not shown
chain: DVQLVESGGGVVQPGGSLRLSCAASGFTFSSYYMSWVRQAPGKGLEWVSTINTDGDFTSYADSVKGRFTISRDNAKNTLYLQMNSLRPEDTALYYCARARGPYSRGSQGHDYRGQGTLVTVSSGGGGSDKTHTCPPCPAPEAAGGPSVFLFPPKPKDTLMISRTPEVTCVVVDVSHEDPEVKFNWYVDGVEVHNAKTKPREEQYNSTYRVVSVLTVLHQDWLNGKEYKCKVSNKALPAPIEKTISKAKGQPREPQVCTLPPSRDELTKNQVSLSCAVKGFYPSDIAVEWESNGQPENNYKTTPPVLDSDGSFFLVSKLTVDKSRWQQGNVFSCSVMHEALHNRFTQKSLSLSPG
notes: Three chains: anti-OX40 light chain (I), anti-OX40 heavy chain (II), anti-CD28 VHH-Fc chain (III); also called lead candidate L4
B2: bispecific antibody L6 (anti-CD28 VHH x anti-OX40 Fab, human IgG1 Fc) (bispecific antibody)
light: not shown
heavy: not shown
chain: B1 chain
notes: Three chains: anti-OX40 light chain (I), anti-OX40 heavy chain (II), anti-CD28 VHH-Fc chain (III); also called lead candidate L6
B3: bispecific antibody L5 (anti-CD28 VHH x anti-OX40 Fab, human IgG1 Fc) (bispecific antibody)
light: not shown
heavy: not shown
chain: B1 chain
notes: Three chains: anti-OX40 light chain (I), anti-OX40 heavy chain (II), anti-CD28 VHH-Fc chain (III); also called lead candidate L5
B4: bispecific antibody L1 (anti-CD28 VHH x anti-OX40 Fab, human IgG1 Fc) (bispecific antibody)
light: not shown
heavy: not shown
chain: DVQLVESGGGVVQPGGSLRLSCAASGSFFSIDTMDWYRQAPGKQRELVTGVTSGGLTNYADSVKGRFTISIDNAKNTVYLQMNSLRPEDTALYYCSARIRTSGGGGWSTYWGQGTLVTVSSGGGGSDKTHTCPPCPAPEAAGGPSVFLFPPKPKDTLMISRTPEVTCVVVDVSHEDPEVKFNWYVDGVEVHNAKTKPREEQYNSTYRVVSVLTVLHQDWLNGKEYKCKVSNKALPAPIEKTISKAKGQPREPQVCTLPPSRDELTKNQVSLSCAVKGFYPSDIAVEWESNGQPENNYKTTPPVLDSDGSFFLVSKLTVDKSRWQQGNVFSCSVMHEALHNRFTQKSLSLSPG
notes: Three chains: anti-OX40 light chain (I), anti-OX40 heavy chain (II), anti-CD28 VHH-Fc chain (III); also called lead candidate L1
B5: bispecific antibody L3 (anti-CD28 VHH x anti-OX40 Fab, human IgG1 Fc) (bispecific antibody)
light: not shown
heavy: not shown
chain: B4 chain
notes: Three chains: anti-OX40 light chain (I), anti-OX40 heavy chain (II), anti-CD28 VHH-Fc chain (III); also called lead candidate L3
B6: bispecific antibody L2 (anti-CD28 VHH x anti-OX40 Fab, human IgG1 Fc) (bispecific antibody)
light: not shown
heavy: not shown
chain: B4 chain
notes: Three chains: anti-OX40 light chain (I), anti-OX40 heavy chain (II), anti-CD28 VHH-Fc chain (III); also called lead candidate L2
B7: prototype OX40 arm Fab (Fab, V domains shown)
VH: EVQLVESGGVVVQPGGSLRLSCAASGFTFDDYTMHWVRQAPGKGLEWVSLISWDGGSTYYADSVKGRFTISRDNSKNSLYLQMNSLRTEDTAVYYCARDNLWGYLTYFDYWGQGTLVTVSS
VL: QSVLTQPPSVSAAPGQKVTISCSGSSSNIGNNYVSWYQQLPGTAPKLLIYDNNKRPSGIPDRFSGSKSGTSATLGITGLQTGDEADYYCGTWDSSLTAYVFGGGTKLTVL
notes: Fab of the OX40 arm of the bispecific CD28-OX40 prototype; also called prototype arm
B8: L4 & L6 & L5 CD28 arm VHH (VHH-His) (VHH)
VHH: DVQLVESGGGVVQPGGSLRLSCAASGFTFSSYYMSWVRQAPGKGLEWVSTINTDGDFTSYADSVKGRFTISRDNAKNTLYLQMNSLRPEDTALYYCARARGPYSRGSQGHDYRGQGTLVTVSS
notes: Used as VHH-His in the crystal structure with CD28-His; also called L4, L6 & L5 CD28 VHH; not shown: His tag

Molecular target: T4, human FcRn (Immunitrack, ITF01-200) (human, UniProt P55899 24-297; P61769 21-119)
T4 construct: captured on a Series S Sensor Chip CAP; also called recombinant human FcRN
Assay: SPR (Biacore 8K), FcRn captured on CAP chip, bispecific as analyte, pH 6.0, steady state

T4 sequence (P55899 24-297 limits assumed, chain 1 of 2): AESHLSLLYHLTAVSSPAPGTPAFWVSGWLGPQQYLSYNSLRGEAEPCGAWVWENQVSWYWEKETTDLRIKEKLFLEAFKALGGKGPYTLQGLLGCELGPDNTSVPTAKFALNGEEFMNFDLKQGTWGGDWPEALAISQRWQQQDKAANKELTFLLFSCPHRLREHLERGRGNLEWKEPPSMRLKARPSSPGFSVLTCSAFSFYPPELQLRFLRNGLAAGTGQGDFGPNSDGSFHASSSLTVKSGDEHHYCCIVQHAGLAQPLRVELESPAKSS
T4 sequence (P61769 21-119 limits assumed, chain 2 of 2): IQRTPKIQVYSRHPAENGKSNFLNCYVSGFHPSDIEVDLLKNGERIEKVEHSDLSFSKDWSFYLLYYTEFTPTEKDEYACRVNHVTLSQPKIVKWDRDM

B1 and B2 are within 1.5-fold of each other in Kd: 574 nM for the first, 745 nM for the second.

B3 and B4 are within 1.5-fold of each other in Kd: 714 nM for the first, 924 nM for the second.

B5 and B6 are within 1.5-fold of each other in Kd: 990 nM for the first, 988 nM for the second.

Molecular target: T5, human CD28 (CD28-3910H, Creative Bio Mart), recombinant (human, UniProt P10747 19-152)
T5 construct: Bought protein
Assay: SPR (Biacore 8K), bispecific captured by anti-human Fc, antigen as analyte, 1:1 model

T5 sequence (P10747 19-152 limits assumed): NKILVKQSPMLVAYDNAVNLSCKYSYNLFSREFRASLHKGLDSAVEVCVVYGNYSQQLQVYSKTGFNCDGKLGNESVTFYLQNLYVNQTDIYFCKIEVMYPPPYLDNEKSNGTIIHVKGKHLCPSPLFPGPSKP

B1 and B2 are within 1.5-fold of each other in Kd: 11.9 nM for the first, 11.3 nM for the second.

Going from B3 to B4, the Kd falls from 9.99 nM to 3.6 nM (2.8-fold). The second binds more tightly here.

B5 and B6 are within 1.5-fold of each other in Kd: 3.3 nM for the first, 3.23 nM for the second.

Molecular target: T1, human OX40 (10481-H08H, Sino …)
Assay: as above

Compared with B1, B2 is 2-fold higher in Kd: 4.1 nM for the first, 8.1 nM for the second.

B3 and B4 are within 1.5-fold of each other in Kd: 6.1 nM for the first, 4.3 nM for the second.

B5 and B6 are within 1.5-fold of each other in Kd: 8.1 nM for the first, 6.9 nM for the second.

Molecular target: T6, cyno OX40 (internal production), recombinant (cynomolgus monkey)
T6 construct: also called Cynomolgus Monkey OX40
Assay: as above

Going from B1 to B2, the Kd rises from 3.7 nM to 20 nM (5.4-fold). The first binds more tightly here.

B3 and B4 are within 1.5-fold of each other in Kd: 3.3 nM for the first, 2.9 nM for the second.

Compared with B5, B6 is 3.8-fold lower in Kd: 15 nM for the first, 4 nM for the second. The second binds more tightly here.

Molecular target: T2, Human OX40 (amino acids 29-170 of human …)
Assay: structure of the complex

B7: binds.

Molecular target: T3, human OX40 on the surface of cells …
Assay: flow cytometry on HEK293 cells expressing human OX40; anti-human IgG Fc PE secondary; MFI

B1 and B2 are the same in “EC50 (read off the curve)” value: about 1 nM for the first, about 1 nM for the second.

B3 and B4 are within 1.5-fold of each other in “EC50 (read off the curve)” value: about 1 nM for the first, about 0.7 nM for the second.

B5 and B6 are the same in “EC50 (read off the curve)” value: about 1 nM for the first, about 1 nM for the second.

Molecular target: T7, CD28-His (amino acids 19-136 of human CD28) (human, UniProt P10747 19-136)
T7 construct: Expressed in Expi293 cells, purified by HisTrap and SEC; also called Human CD28 Amino acids 19-136; not shown: His tag
Assay: complex formation, SEC, crystal structure

B8: binds.
